Laboratory results published in paper PMC7948480, “Enzymatic and structural properties of human glutamine:fructose-6-phosphate amidotransferase 2 (hGFAT2)” (The Journal of Biological Chemistry, 2020).

Legend:
[1] = molecular target: the molecule itself; assay: SEC; Superdex 200 column, 20 mM Tris-HCl pH 7.5, 150 mM NaCl, 1 mM DTT, 0.5% NP-40, 1 ml/min; mass estimated from standard proteins
[2] = molecular target: the molecule itself; assay: cross-linking; 3, 5 or 10 ug of purified rhGFAT2-his in PBS with 1 mM EGS, 30 min, room temperature; stopped with 30 mM Tris-HCl pH 8.0; gradient SDS-PAGE, Coomassie staining

B1: recombinant human glutamine:fructose-6-phosphate amidotransferase 2 with a C-terminal 6xHisTag (rhGFAT2-his) (enzyme, UniProt O94808 2-682, looked up)
chain: CGIFAYMNYRVPRTRKEIFETLIKGLQRLEYRGYDSAGVAIDGNNHEVKERHIQLVKKRGKVKALDEELYKQDSMDLKVEFETHFGIAHTRWATHGVPSAVNSHPQRSDKGNEFVVIHNGIITNYKDLRKFLESKGYEFESETDTETIAKLIKYVFDNRETEDITFSTLVERVIQQLEGAFALVFKSVHYPGEAVATRRGSPLLIGVRSKYKLSTEQIPILYRTCTLENVKNICKTRMKRLDSSACLHAVGDKAVEFFFASDASAIIEHTNRVIFLEDDDIAAVADGKLSIHRVKRSASDDPSRAIQTLQMELQQIMKGNFSAFMQKEIFEQPESVFNTMRGRVNFETNTVLLGGLKDHLKEIRRCRRLIVIGCGTSYHAAVATRQVLEELTELPVMVELASDFLDRNTPVFRDDVCFFISQSGETADTLLALRYCKDRGALTVGVTNTVGSSISRETDCGVHINAGPEIGVASTKAYTSQFISLVMFGLMMSEDRISLQNRRQEIIRGLRSLPELIKEVLSLEEKIHDLALELYTQRSLLVMGRGYNYATCLEGALKIKEITYMHSEGILAGELKHGPLALIDKQMPVIMVIMKDPCFAKCQNALQQVTARQGRPIILCSKDDTESSKFAYKTIELPHTVDCLQGILSVIPLQLLSFHLAVLRGYDVDFPRNLAKSVTVE
notes: human glutamine:fructose-6-phosphate amidotransferase 2 (hGFAT2), product of the gfpt2 gene; The His tag comes from pET23a after the NotI site; Mostly a tetramer by SEC, with higher oligomers up to octamers; also called rhGFAT-his; source: E. coli Codon plus, soluble fraction, purified (Ni-NTA HisTrap column); not shown: His6, C-terminal, kept
[1]
  stoichiometry N: ≤ 8
[2]
  stoichiometry N: 4
